The values below come from patent US5869271A, “G-beta-gamma regulated phosphatidylinositol-3' kinase” (Onyx Pharmaceuticals, priority 1997, dated 1999).

The target in this series is free p120 PI3K catalytic subunit (Sus scrofa, UniProt O02697). Put plainly: PI3K assay on free recombinant p120 (Sf9-derived). In kind it is biochemical, porcine.
Chain of free p120 PI3K catalytic subunit (O02697 whole entry): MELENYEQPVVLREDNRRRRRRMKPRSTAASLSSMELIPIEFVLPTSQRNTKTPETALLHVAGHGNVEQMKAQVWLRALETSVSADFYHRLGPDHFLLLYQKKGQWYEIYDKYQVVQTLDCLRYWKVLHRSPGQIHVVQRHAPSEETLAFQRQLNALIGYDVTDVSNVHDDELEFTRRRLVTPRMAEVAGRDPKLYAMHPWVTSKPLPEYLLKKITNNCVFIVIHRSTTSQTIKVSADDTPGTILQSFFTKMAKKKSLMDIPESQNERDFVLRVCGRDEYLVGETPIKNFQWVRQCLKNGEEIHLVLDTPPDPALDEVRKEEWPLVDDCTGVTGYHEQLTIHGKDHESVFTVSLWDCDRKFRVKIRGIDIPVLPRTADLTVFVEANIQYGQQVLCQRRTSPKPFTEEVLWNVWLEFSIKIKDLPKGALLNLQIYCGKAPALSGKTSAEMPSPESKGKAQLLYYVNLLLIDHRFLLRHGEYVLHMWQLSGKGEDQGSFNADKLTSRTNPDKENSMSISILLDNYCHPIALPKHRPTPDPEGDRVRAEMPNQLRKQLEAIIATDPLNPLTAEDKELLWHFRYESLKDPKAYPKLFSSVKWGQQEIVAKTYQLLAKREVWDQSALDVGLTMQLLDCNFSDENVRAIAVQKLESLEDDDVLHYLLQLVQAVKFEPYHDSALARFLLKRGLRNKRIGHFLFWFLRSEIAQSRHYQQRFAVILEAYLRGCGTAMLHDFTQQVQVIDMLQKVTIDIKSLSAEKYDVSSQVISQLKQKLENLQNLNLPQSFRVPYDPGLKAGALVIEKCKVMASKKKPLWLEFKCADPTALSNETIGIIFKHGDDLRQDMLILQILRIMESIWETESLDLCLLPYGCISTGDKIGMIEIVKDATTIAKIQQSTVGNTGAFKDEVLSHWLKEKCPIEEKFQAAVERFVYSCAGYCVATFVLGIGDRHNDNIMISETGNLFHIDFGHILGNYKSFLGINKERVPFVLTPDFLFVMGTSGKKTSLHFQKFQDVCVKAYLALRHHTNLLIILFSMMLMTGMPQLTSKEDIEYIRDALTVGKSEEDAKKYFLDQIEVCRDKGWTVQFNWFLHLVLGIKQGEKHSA

Description: Assays contained either 7 nM p101/p120 or 36 nM p120 alone (final concentrations) which were incubated with various reagents; 10 mM NaF and 30 μM AlCl3 (A/F) ; 1 μM Gβγ-subunits (βγ); 2 μM Gα-GDP; 100 nM wortmannin (W) or 50 μM tyrosine phosphorylated peptide (PY) for a total of 15 minutes (at 0° C.) prior to starting the assays by adding [γ^32 P]-ATP; [^32 P]-incorporated into [^32 P]-PtdIns(3,4,5) P3 was quantified. The data shown are means (n=2).
Purified aliquots of Sf9 -derived or pig neutrophil cytosol-derived PI3K were diluted in ice-cold 0.12M NaCl, 25 mM HEPES, 1 mM EGTA, 1 mM DTT, 1 mg-ml^-1 BSA, 1% betaine, 0.02%, w/v, Tween-20, pH 7.4, 0° C. to an appropriate extent, then 5 μl aliquots were stored on ice until assayed. […] 30 μl of a mixture of phospholipids with or without Gβγs and/or Gαs (either GDP-bound or activated) was added to the 5 μl fractions, or 10 μl of beads, and mixed. After 10 minutes on ice, 5-10 μl of last wash buffer, supplemented with MgCl2 to give a final concentration in the extant assay volume of 3.5 mM, was added and mixed. Six minutes later, 5 μl of last wash buffer was added (to give a final assay volume of 50 μl) containing [^32 ]-ATP (typically 10 μCi assay^-1, Amersham, PB10168) and 3.5 mM MgCl2, tubes were mixed and transferred to a 30° C. water bath. […]

B1: p120: catalytic subunit of the G protein-regulated PI3K; the b332 result is for the form after complete thrombin cleavage (protein)
chain: MELENYEQPVVLREDNRRRRRRMKPRSTAASLSSMELIPIEFVLATSQRNTKTPETALLHVAGHGNVEKMKAQVLLRALETSVSWDFYHRFGPDHFLLVFQKKGEWYEIYDKYQVVQTLDCLRYWEVLHRSPGQIHVVQRHAPSEETLAFQRQLNALIGYDVTDVSNVHDDELEFTRRRLVTPRMAEVAGRDPKLYAMHPWVTSKPLPEYLLKKITNNCVFIVIHRSTTSQTIKVSADDTPGTILQSFFTKMAKKKSLMDIPESQNERDFVLRVCGRDEYLVGETPIKNFQWVRQCLKNGEEIHLVLDTPPDPALDEVRKEEWPLVDDCTGVTGYHEQLTIHGKDHESVFTVSLWDCDRKFRVKIRGIDIPVLPRTADLTVFVEANIQYGQQVLCQRRTSPKPFTEEVLWNVWLEFSIKIKDLPKGALLNLQIYCGKAPALSGKTSAEMPSPESKGKAQLLYYVNLLLIDHRFLLRHGEYVLHMWQLSGKGEDQGSFNADKLTSGTNPDKEDSMSISILLDNYCHPIALPKHRPTPDPEGDRVRAEMPNQLRKQLEAIIATDPLNPLTAEDKELLWHFRYESLKDPKAYPKLFSSVKWGQQEIVAKTYQLLAKREVWDQSALDVGLTMQLLDCNFSDENVRAIAVQKLESLEDDDVLHYLLQLVQAVKFEPYHDSALARFLLKRGLRNKRIGHFLFWFLRSEIAQSRHYQQRFAVILEAYLRGCGTAMLHDFTQQVQVIDMLQKVTIDIKSLSAEKYDVSSQVISQLKQKLENLQNLNLPQSFRVPYDPGLKAGALVIEKCKVMASKKKPLWLEFKCADPTALSNETIGIIFKHGDDLRQDMLILQILRIMESIWETESLDLCLLPYGCISTGDKIGMIEIVKDATTIAKIQQSTVGNTGAFKDEVLSHWLKEKCPIEEKFQAAVERFVYSCAGYCVATFVLGIGDRHNDNIMISETGNLFHIDFGHILGNYKSFLGINKERVPFVLTPDFLFVMGTSGKKTSLHFQKFQDVCVKAYLALRHHTNLLIILFSMMLMTGMPQLTSKEDIEYIRDALTVGKSEEDAKKYFLDQIEVCRDKGWTVQFNWFLHLVLGIKQGEKHPA
For the molecule B1, the “reduction of p120 PI3K catalytic activity by removal of about 40 amino terminal residues (thrombin cleavage)” value is on record as 20-30%.
